In assay [1] the target is T1, recombinant NRPD1 fused at its C terminus to a FLAG epitope tag (A. thaliana, UniProt Q9LQ02 1-1453).
T1 construct: NRPD1 open reading frame, A. thaliana, codon optimized synthetic gene; full-length NRPD1 is 1,453 amino acids; More in SI Appendix, Methods; also called FLAG-tagged NRPD1; not shown: FLAG, C-terminal, kept
T1 sequence (looked up): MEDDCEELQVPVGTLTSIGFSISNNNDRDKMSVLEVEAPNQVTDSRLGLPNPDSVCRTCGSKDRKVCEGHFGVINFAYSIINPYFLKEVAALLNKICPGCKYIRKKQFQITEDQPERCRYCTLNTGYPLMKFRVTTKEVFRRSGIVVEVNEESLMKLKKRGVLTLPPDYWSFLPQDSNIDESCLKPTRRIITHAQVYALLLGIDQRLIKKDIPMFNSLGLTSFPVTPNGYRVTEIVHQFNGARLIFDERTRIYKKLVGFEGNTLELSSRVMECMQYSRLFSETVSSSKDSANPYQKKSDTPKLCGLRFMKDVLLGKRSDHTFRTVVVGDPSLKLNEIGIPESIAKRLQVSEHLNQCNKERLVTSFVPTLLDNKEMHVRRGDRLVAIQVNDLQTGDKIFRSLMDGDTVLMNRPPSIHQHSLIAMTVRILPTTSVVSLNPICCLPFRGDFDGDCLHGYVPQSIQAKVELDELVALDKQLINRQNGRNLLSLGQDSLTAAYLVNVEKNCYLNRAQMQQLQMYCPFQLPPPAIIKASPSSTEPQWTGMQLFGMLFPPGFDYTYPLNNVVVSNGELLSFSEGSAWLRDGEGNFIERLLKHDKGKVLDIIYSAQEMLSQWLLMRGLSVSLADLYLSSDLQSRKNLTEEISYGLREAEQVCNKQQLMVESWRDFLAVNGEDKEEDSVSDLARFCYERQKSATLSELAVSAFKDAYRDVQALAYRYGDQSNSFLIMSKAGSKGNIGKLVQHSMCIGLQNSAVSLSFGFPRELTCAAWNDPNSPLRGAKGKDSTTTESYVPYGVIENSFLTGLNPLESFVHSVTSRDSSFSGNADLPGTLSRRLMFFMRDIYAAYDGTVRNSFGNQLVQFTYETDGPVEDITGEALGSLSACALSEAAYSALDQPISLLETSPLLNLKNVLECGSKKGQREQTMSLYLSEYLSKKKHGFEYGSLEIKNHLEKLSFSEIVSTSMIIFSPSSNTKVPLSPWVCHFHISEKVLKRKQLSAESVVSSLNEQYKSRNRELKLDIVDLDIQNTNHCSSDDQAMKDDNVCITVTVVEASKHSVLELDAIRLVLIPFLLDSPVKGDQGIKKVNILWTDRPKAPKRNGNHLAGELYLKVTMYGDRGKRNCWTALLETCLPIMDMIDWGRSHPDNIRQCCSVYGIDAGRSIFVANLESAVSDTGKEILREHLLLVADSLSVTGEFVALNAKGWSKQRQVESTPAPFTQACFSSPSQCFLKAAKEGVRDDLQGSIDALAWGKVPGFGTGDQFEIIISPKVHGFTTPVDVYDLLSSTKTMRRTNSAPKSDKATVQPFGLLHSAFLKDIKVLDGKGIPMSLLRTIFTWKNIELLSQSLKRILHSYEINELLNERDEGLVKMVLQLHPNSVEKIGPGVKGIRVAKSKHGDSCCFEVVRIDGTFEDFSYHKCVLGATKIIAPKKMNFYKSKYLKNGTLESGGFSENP
Put plainly: co-IP; purified recombinant proteins, 0.25 µM each, 30 min, room temperature, 50 mM Hepes-KOH pH 7.5, 150 mM NaCl; IP with resin against the tag of one or the other partner (anti-FLAG, anti-V5 or anti-HA); immunoblot. Conditions: both partners purified.

The target of assay [2] is T2, NRPD1-FLAG of plant Pol IV, as the band of about 165 kDa resolved by SDS-PAGE (A. thaliana, UniProt Q9LQ02 1-1453).
T2 construct: NRPD1, largest catalytic subunit of Pol IV, A. thaliana; full-length NRPD1 is 1,453 amino acids; The band is assigned to NRPD1 by its size only; also called largest Pol IV subunit
T2 sequence (looked up): T1 sequence (looked up)
Put plainly: far-Western, overlay or dot blot; far-Western: affinity-purified FLAG-tagged Pol II, Pol IV and Pol V resolved by SDS-PAGE, electroblotted to nitrocellulose, incubated with recombinant V5-tagged RDR2, detected with anti-V5-HRP. Conditions: both partners purified.

Here are results for one molecule from article PMC8020760, “Assembly of a dsRNA synthesizing complex: RNA-DEPENDENT RNA POLYMERASE 2 contacts the largest subunit of NUCLEAR RNA POLYMERASE IV” (Proceedings of the National Academy of Sciences of the …, 2021).

B1: recombinant RNA-DEPENDENT RNA POLYMERASE 2 (RDR2), wild type, with N-terminal V5 epitope and 6xHis tags (enzyme, A. thaliana, UniProt O82504 1-1133, looked up)
chain: MVSETTTNRSTVKISNVPQTIVADELLRFLELHLGEDTVFALEIPTTRDNWKPRDFARVQFTTLEVKSRAQLLSSQSKLLFKTHNLRLSEAYDDIIPRPVDPRKRLDDIVLTVGFPESDEKRFCALEKWDGVRCWILTEKRRVEFWVWESGDCYKIEVRFEDIIETLSCCVNGDASEIDAFLLKLKYGPKVFKRVTVHIATKFKSDRYRFCKEDFDFMWIRTTDFSGSKSIGTSTCFCLEVHNGSTMLDIFSGLPYYREDTLSLTYVDGKTFASAAQIVPLLNAAILGLEFPYEILFQLNALVHAQKISLFAASDMELIKILRGMSLETALVILKKLHQQSSICYDPVFFVKTQMQSVVKKMKHSPASAYKRLTEQNIMSCQRAYVTPSKIYLLGPELETANYVVKNFAEHVSDFMRVTFVEEDWSKLPANALSVNSKEGYFVKPSRTNIYNRVLSILGEGITVGPKRFEFLAFSASQLRGNSVWMFASNEKVKAEDIREWMGCFRKIRSISKCAARMGQLFSASRQTLIVRAQDVEQIPDIEVTTDGADYCFSDGIGKISLAFAKQVAQKCGLSHVPSAFQIRYGGYKGVIAVDRSSFRKLSLRDSMLKFDSNNRMLNVTRWTESMPCFLNREIICLLSTLGIEDAMFEAMQAVHLSMLGNMLEDRDAALNVLQKLSGENSKNLLVKMLLQGYAPSSEPYLSMMLRVHHESQLSELKSRCRILVPKGRILIGCMDEMGILEYGQVYVRVTLTKAELKSRDQSYFRKIDEETSVVIGKVVVTKNPCLHPGDIRVLDAIYEVHFEEKGYLDCIIFPQKGERPHPNECSGGDLDGDQFFVSWDEKIIPSEMDPPMDYAGSRPRLMDHDVTLEEIHKFFVDYMISDTLGVISTAHLVHADRDPEKARSQKCLELANLHSRAVDFAKTGAPAEMPYALKPREFPDFLERFEKPTYISESVFGKLYRAVKSSLAQRKPEAESEDTVAYDVTLEEAGFESFIETAKAHRDMYGEKLTSLMIYYGAANEEEILTGILKTKEMYLARDNRRYGDMKDRITLSVKDLHKEAMGWFEKSCEDEQQKKKLASAWYYVTYNPNHRDEKLTFLSFPWIVGDVLLDIKAENAQRQSVEEKTSGLVSI
Take B1: the binding result in assay [1] and in assay [2] was “binds” each time.
